Substitutions are numbered along the chain they refer to.
T1: Human HEVM recombinant protein (Sino Biological, 10334-H02H) (human, UniProt Q92956 39-202)
T1 construct: construct known only by catalogue number; also called HVEM; human HVEM
T1 sequence (looked up): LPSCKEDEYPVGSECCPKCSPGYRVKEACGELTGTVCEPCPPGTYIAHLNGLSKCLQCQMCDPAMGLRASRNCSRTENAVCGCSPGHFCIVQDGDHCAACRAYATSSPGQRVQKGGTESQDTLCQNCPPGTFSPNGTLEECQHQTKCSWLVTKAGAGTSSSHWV

T2: His-tagged human HVEM (human, UniProt Q92956 39-202, limits assumed)
T2 construct: Analyte of the BLI assay, 200 nM in PBS; not shown: His tag
T2 sequence (looked up): T1 sequence (looked up)

T3: cynomolgus monkey HVEM (cynomolgus monkey, UniProt A0A2K5W0R1 39-203)
T3 sequence: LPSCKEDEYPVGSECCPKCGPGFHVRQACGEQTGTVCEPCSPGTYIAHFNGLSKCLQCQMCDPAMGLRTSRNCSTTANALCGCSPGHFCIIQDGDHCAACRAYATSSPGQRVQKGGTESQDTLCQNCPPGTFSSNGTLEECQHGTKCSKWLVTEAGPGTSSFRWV

T4: murine HVEM (murine, UniProt Q80WM9 39-206, limits assumed)
T4 construct: also called Mouse
T4 sequence (looked up): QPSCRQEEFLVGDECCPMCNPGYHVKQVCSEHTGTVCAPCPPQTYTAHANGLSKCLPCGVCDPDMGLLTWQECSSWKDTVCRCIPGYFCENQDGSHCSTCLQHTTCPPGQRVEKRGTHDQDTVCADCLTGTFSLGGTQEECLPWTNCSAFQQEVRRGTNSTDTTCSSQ

T5: human HVEM (human, UniProt Q92956 39-202, limits assumed)
T5 sequence (looked up): T1 sequence (looked up)

B1: Ab_080 (H5S20-27A23A) (antibody, V domains shown)
VH: EVQLQQSGTVLARPGASVKMSCKASGYSFTSYWMHWLKQRPGQGLEWIGAIYPGNSDTVFNQKFKGKAKLTAVTSATTAYMELSSLTNEDSAVYYCTKEPRTIEGAWFTYWGQGTLVTVSA
VL: DIVMTQSPSSLTVPAGEKVTMSCKSSQSLLNSENQKNYLTWYQQKPGQPPKLLIYWASTRESGVPDRFTGSGSGTDFTLTISSVQAEDLAVYYCQSDYSYPLTFGAGTKLELK
notes: also called Ab_80
B2: Ab_036 (H5S15-12A13A) (antibody, V domains shown)
VH: EVQLQQSGAELVKPGASVKLSCTASGFNIKDTYMHWVKQRPEQGLEWIGRIDPANGNTKFDPKFQGKATITADTSSNTAYLQLSSLTSEDTAVYYCASRGGSSFDYWGQGTTLTVSS
VL: DIVLTQSPASLAVSLGQRATISCKASQSVDYDGESYMNWYQQKPGQPPKLLIYAASNLDSGIPARFSGSGSGTDFTLNIHPVEEEDAATYYCQQSNEDPLTFGAGTKLELK
notes: also called Ab_36
B3: Ab_072 (H5S20-15A13A) (antibody, V domains shown)
VH: B2 VH with F60Y, S98T, R99S, F104Y
VL: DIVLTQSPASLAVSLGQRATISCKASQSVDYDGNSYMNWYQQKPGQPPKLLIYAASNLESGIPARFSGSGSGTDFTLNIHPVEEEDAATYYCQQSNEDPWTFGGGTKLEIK
notes: also called Ab_72
B4: Ab_001 (H5S14-1A1A) (antibody, V domains shown)
VH: DVKLVESGGGLVKPGGSLKLSCAASVFTFSRYTMSWVRQTPEKRLEWVATISSGGSYTYYPDSVKGRFTISRDNAKNTLYLQMSSLKSEDTAIYYCTRGGDGLFDYWGQGTALTVSS
VL: DVQITQSPSYLAASPGETITINCRASKSISKYLAWYQEKPGKTNQLLIYSGSTLQSGIPSRFSGSGSGTDFTLTISSLEPEDFAMYYCQQHNEYPWTFGGGTKLEIK
notes: also called Ab_1
B5: Ab_078 (H5S20-45A34A) (antibody, V domains shown)
VH: EVQLQQSGAELVRSGASVKLSCAASGFNIKDYYMHWVKQRPEQGLEWIGWIDPENGDTEFAPKFQGKATLTADTSSNTAYLQLSSLTSEDTAVYYCNTRTLGYWGQGTLVTVSA
VL: QIVLTQSPALMSASPGEKVTMTCTASSSVSYMYWYQQKPRSSPKPWIYLTSNLASGVPARFSGSGSGTSYSLTISSMEAEDAATYYCQQWSSNPLTFGAGTKLELR
notes: also called Ab_78
B6: Ab_065 (H5S20-39A29A) (antibody, V domains shown)
VH: EVKLVESGGGLVKPGGSLKLSCAASGFTFSSYAMSWVRQTPETRLEWVASISSGGNTYYPDSVKGRFTISRDNVRNILYLQMSSLRSEDTAMYFCTRGGYGSSHVIWGQGTTLTVSS
VL: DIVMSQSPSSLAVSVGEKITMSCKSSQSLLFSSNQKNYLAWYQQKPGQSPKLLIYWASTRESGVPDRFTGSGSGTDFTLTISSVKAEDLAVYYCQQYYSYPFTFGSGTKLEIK
notes: also called Ab_65
B7: Ab_066 (H5S20-1A1A) (antibody, V domains shown)
VH: B6 VH with N56D, Y58F, P60R, G65A, N73D, N76D, H104F
VL: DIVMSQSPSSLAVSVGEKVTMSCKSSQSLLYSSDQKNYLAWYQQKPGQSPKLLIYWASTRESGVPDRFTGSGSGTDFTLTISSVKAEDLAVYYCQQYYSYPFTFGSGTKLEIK
notes: also called Ab_66
B8: Ab_063 (H5S20-4A4A) (antibody, V domains shown)
VH: B6 VH with V12M, N56S, H104Y
VL: DIVMSQSPSSLAVSVGEKITMSCKSSQSLLFSSIQKNYLAWYQQKPGQSPKLLVYWASTRESGVPDRFTGSGSGTDFTLTISSVKAEDLAVYYCQQYYSYPFTFGSGTKLEIK
notes: also called Ab_159; Ab_63
B9: Ab_064 (H5S20-6A6A) (antibody, V domains shown)
VH: B6 VH with Y32F, T43K, S62N, V74A, R75G, F94Y, T96A, H104Y
VL: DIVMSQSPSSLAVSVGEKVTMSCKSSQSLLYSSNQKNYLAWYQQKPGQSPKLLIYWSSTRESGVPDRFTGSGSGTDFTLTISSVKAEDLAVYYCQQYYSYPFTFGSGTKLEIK
notes: also called Ab_64
B10: Ab_050 (H5S19-9A11A) (antibody, V domains shown)
VH: QVQLKQSGPGLVQPSQSLSITCTVSGFSLTTYGVHWVRQSPGKGLEWLGVIWSGGSTDYNAAFISRLSISKDNSKSQVFFKMNSLQANDTAIYYCARRGYGSPYYYAMDYWGQGTSVTVSS
VL: EIVLTQSPALMAASPGEKVTITCSVSSSISSSNLHWYQQKSETSPKPWIYGTSNLASGVPVRFSGSGSGTSYSLTISSMEAEDAATYYCQQWSSYPLTFGAGTKLELK
notes: also called Ab_50
B11: Ab_051 (H5S19-4A6A) (antibody, V domains shown)
VH: QVQLKESGPGLVAPSQSLSITCTVSGFSLTGYGVNWVRQPPGKGLEWLGMIWGDGNTDYNSALKSRLSISKDNSKSQVFLKMNSLQTDDTARYYCARSYGSYWGQGTLVTVSA
VL: QIVLTQSPAIMSASPGEKVTMTCSASSSVSYMYWYQQKPGSSPRLLIYDTSNLASGVPVRFSGSGSGTSYSLTISRMEAEDAATYYCQQWSSYPFTFGSGTKLEIK
notes: also called Ab_51
B12: Ab_070 (H5S20-7A7A) (antibody, V domains shown)
VH: QVQLQQSGAELVRPGTSVKISCKASGYRFTNSWLGWIKQRPGHGLEWIGDIYPGGGYNKYNEKFRGKATLTADTSSSTAYMQLSSLTSEDSAVYFCAGAMDSWGQGTSVTVSS
VL: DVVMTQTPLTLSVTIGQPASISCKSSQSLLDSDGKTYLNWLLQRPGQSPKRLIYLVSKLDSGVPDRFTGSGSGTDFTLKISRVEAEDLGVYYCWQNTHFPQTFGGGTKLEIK
notes: also called Ab_70
B13: Ab_030 (H5S15-18A17A) (antibody, V domains shown)
VH: QVQLQQSGAELVRPGTSVKMSCKAAGYTFTNSWIGWVKQRPGHGLEWIGDIYPGGGYTNYYEKFKVKATLTADTSSSTAYMQLSSLTSEDSAIYYCASSGAYWGQGTTLTVSS
VL: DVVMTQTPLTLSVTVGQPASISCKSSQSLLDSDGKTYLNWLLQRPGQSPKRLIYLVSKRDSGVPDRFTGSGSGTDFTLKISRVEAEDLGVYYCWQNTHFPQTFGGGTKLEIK
notes: also called Ab_30
B14: Ab_031 (H5S15-8A17A) (antibody, V domains shown)
VH: B13 VH with N31D, Y61N, V66G, S85R
VL: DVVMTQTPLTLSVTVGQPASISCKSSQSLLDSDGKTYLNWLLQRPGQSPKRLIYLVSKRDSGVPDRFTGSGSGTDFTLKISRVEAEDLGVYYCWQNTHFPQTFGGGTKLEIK
notes: also called Ab_31

target: T1, Human HEVM recombinant protein (Sino …); experiment: competition ELISA, competitor BTLA-His
Experimental: (§1) The competitive activity of HVEM antibody to BTLA or LIGHT was evaluated with ELISA-based competitive assay. Briefly Human HEVM recombinant protein (Sino Biological, 10334-H02H, 4 ug/ml, 100 ul/well) was coated to ELISA plate (Thermo Scientific, 469949, 4C overnight). A pre-mixture of HVEM antibody clone with seral dilution and 400 nM BTLA-His (R&D systems, 9235-BT-050) or LIGHT-His (SinoBiological, 10386-H07H) recombinant protein was made and added to the ELISA plate after blocking with 3% BSA (200 ul/well, RT 2 Hr) for 1 Hr at RT. The serial dilutions of HVEM antibody clone involve 7 different concentrations, with a 3-fold dilution performed start from 100 nM for BTLA or 325 nM for LIGHT competitive assay. The concentration was the final concentration. Plate was washed with PBST; diluted HRP-anti-His (Biolegend, 652504, 1:1000) with PBS containing 5% FBS was added 100 ul per well for 1 Hr at RT. TMB substrate (KPL, 52-00-00) 100 ul per well after washing and incubate at room temperature for 15 minutes; then stop the development by adding 100 ul stop solution (KPL, 50-85-06). Plate was read at 450 nm. The IC50 was calculated using GraphPad Prism software (GraphPad Software, Inc. San Diego, CA, USA).

| IC50 [nM] | Binder |
| --- | --- |
| 1.8 | B1 |
| 0.8 | B2 |
| 1.6 | B3 |
| 2.2 | B4 |
| 1.5 | B5 |
| 1.7 | B6 |
| 1.5 | B7 |
| 2.2 | B8 |
| 1.5 | B9 |
| 3 | B10 |
| 1.3 | B11 |

target: T1, Human HEVM recombinant protein (Sino …); experiment: competition ELISA, competitor LIGHT-His
Experimental: as §1

| IC50 [nM] | Binder |
| --- | --- |
| 37.3 | B1 |
| 17.8 | B12 |
| 18.7 | B2 |
| 252 | B3 |
| 715 | B4 |
| 14.5 | B5 |
| 21.9 | B13 |
| 22 | B14 |
| 8 | B6 |
| 10.4 | B7 |
| 5.7 | B8 |
| 8.7 | B9 |
| 117 | B10 |
| 18.6 | B11 |

target: T2, His-tagged human HVEM; experiment: BLI OctetRed96, mAb captured, 200 nM His-HVEM
How it was run: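 Murine anti-human HVEM antibodies captured from culture supernatant on anti-mouse IgG Fc biosensors, then associated with 200 nM His-tagged human HVEM in PBS, followed by dissociation in PBS. koff, kon and KD obtained by curve fitting.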

| Kd [nM] | koff [s⁻¹] | kon [M⁻¹ s⁻¹] | Binder |
| --- | --- | --- | --- |
| 7.09 | 0.00115 | 162000 | B1 |
| 2.33 | 0.00102 | 438000 | B12 |
| 18.7 | 0.0107 | 571000 | B2 |
| 11.7 | 0.0197 | 1.69e+06 | B3 |
| 550 | 0.154 | 280000 | B4 |
| 4.95 | 0.0023 | 466000 | B5 |
| 10.3 | 0.00419 | 405000 | B13 |
| 11 | 0.00321 | 291000 | B14 |
| 14.9 | 0.0049 | 330000 | B6 |
| 9.59 | 0.00247 | 258000 | B7 |
| 4.09 | 0.00216 | 528000 | B8 |
| 10.7 | 0.00355 | 333000 | B9 |
| 42.2 | 0.00481 | 114000 | B10 |
| 28.8 | 0.0143 | 496000 | B11 |

target: T3, cynomolgus monkey HVEM; experiment: ELISA

| ELISA signal | Binder |
| --- | --- |
| 2.26 | B1 |
| 3.1 | B12 |
| 0.079 | B2 |
| 0.062 | B3 |
| 0.072 | B4 |
| 0.063 | B5 |
| 2.98 | B13 |
| 3.06 | B14 |
| 1.52 | B6 |
| 0.883 | B7 |
| 3.13 | B8 |
| 0.987 | B9 |
| 0.094 | B10 |
| 0.563 | B11 |

target: T4, murine HVEM; experiment: ELISA

| ELISA signal | Binder |
| --- | --- |
| 0.048 | B1 |
| 0.062 | B12 |
| 0.046 | B2 |
| 0.045 | B3 |
| 0.057 | B4 |
| 0.046 | B5 |
| 0.046 | B13 |
| 0.042 | B14 |
| 0.044 | B6 |
| 0.044 | B7 |
| 0.043 | B8 |
| 0.044 | B9 |
| 0.047 | B10 |
| 0.043 | B11 |

target: T5, human HVEM; experiment: ELISA

| ELISA signal | Binder |
| --- | --- |
| 3.07 | B1 |
| 3.23 | B12 |
| 3.26 | B2 |
| 3.36 | B3 |
| 3.3 | B4 |
| 3.08 | B5 |
| 3.08 | B13 |
| 3.08 | B14 |
| 3.24 | B6 |
| 3.28 | B7 |
| 3.1 | B8 |
| 3.07 | B9 |
| 3.02 | B10 |
| 3.18 | B11 |

Reference: patent publication US20240317871A1 (IMMUNOMIC THERAPEUTICS, published 2024)
